Assay results as given in paper PMC6683157.

Key:
[1] = biological target: T1, Csm2 (wild type);Psy3 (wild type) (Saccharomyces cerevisiae;Saccharomyces cerevisiae) (UniProt P40465+Q12318); test: fluorescence anisotropy; details: heparin preparation, Anisotropy: 20 mM Tris pH 8.0, 20-25 nM DNA (2.5-5 nM in Fig 4d), EMSA: 25 mM Tris-HCl pH 8.0, 50 mM NaCl
T1 sequence 1: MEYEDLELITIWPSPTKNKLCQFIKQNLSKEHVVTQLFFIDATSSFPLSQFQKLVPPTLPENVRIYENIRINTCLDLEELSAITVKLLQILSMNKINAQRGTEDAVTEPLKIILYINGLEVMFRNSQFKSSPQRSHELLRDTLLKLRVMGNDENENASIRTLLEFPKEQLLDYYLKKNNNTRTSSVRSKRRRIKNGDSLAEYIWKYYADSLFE
T1 sequence 2: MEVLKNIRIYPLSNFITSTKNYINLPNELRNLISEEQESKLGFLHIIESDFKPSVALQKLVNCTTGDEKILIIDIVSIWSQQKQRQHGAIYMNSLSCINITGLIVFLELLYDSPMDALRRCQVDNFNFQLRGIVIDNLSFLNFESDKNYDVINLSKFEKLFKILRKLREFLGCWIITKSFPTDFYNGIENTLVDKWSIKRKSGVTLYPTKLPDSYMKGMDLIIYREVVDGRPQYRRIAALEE

[2] = biological target: T2, Csm2 (wild type);Psy3 (wild type);Shu1;Shu2 (Saccharomyces cerevisiae;Saccharomyces cerevisiae;Saccharomyces cerevisiae;Saccharomyces cerevisiae) (UniProt P40465+Q12318+P38751+P38957); test: fluorescence anisotropy; details: 5 nM DNA, quadratic fit; N21 of strand 1 = THF abasic analog (ssDNA at ss/ds junction); Anisotropy: 20 mM Tris pH 8.0, 20-25 nM DNA (2.5-5 nM in Fig 4d), protein titrated from 1 M NaCl stock; EMSA: 25 mM Tris-HCl pH 8.0, 50 mM NaCl, 1 mM DTT …
T2 sequence 1: T1 sequence 1
T2 sequence 2: T1 sequence 2
T2 sequence 3: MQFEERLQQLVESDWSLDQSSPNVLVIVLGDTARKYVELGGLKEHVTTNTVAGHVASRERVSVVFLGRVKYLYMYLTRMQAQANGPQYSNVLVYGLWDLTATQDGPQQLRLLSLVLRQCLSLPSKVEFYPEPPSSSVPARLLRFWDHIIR
T2 sequence 4: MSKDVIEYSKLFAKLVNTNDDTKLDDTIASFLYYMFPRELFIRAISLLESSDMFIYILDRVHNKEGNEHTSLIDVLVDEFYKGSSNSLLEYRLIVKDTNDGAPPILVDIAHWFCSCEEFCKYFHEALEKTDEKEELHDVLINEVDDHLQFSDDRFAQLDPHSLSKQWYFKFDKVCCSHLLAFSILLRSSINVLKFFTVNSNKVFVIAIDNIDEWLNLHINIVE

[3] = N20 of strand 1 = THF abasic analog, protein titrated from 1 M NaCl …, 1 mM DTT, 100 u
[4] = N31 of strand 1 = THF abasic analog, protein titrated from 1 M NaCl …, 1 mM DTT, 100 u

TTTTTTTTTTTTTTTTTTTNCTTGACAAGCTTGCGCACTG / CAGTGCGCAAGCTTGTCAAGTTTTTTTTTTTTTTTTTTTT [AP2 double-flap]
Kd [1, 3]: 127 nM

TTTTTTTTTTTTTTTTTTTTCTTGACAAGCNTGCGCACTG / CAGTGCGCAAGCTTGTCAAGTTTTTTTTTTTTTTTTTTTT [AP4 double-flap]
Kd [1, 4]: 131 nM

TTTTTTTTTNTTTTTTTTTTCTTGACAAGCTTGCGCACTG / CAGTGCGCAAGCTTGTCAAGTTTTTTTTTTTTTTTTTTTT [AP1 double-flap]
Kd ([1]; N10 of strand 1 = THF abasic analog (dSpacer), protein titrated from 1 M NaCl stock, 1 mM DTT …): 105 nM

CAGTGCCGAAGCTTGTCAANTTTTTTTTTTTTTTTTTTTT / TTTTTTTTTTTTTTTTTTTTCTTGACAAGCTTGCGCACTG [AP7 double-flap]
Kd [1, 3]: 112 nM

CAGTGCCGAAGCTTGTCAAGTTTTTTTTTTNTTTTTTTTT / TTTTTTTTTTTTTTTTTTTTCTTGACAAGCTTGCGCACTG [AP5 double-flap]
Kd [1, 4]: 142 nM

CAGTGCCGANGCTTGTCAAGTTTTTTTTTTTTTTTTTTTT / TTTTTTTTTTTTTTTTTTTTCTTGACAAGCTTGCGCACTG [AP8 double-flap]
Kd ([1]; N10 of strand 1 = THF abasic analog (in dsDNA), protein titrated from 1 M NaCl stock, 1 mM DTT …): 153 nM

CAGTGCCGAAGCTTGTCAAGNTTTTTTTTTTTTTTTTTTT / TTTTTTTTTTTTTTTTTTTTCTTGACAAGCTTGCGCACTG [AP6 double-flap]
Kd ([1]; text gives 71, N21 of strand 1 = THF abasic analog (ssDNA at ss/ds junction), protein titrated from 1 M NaCl stock, 1 mM DTT …): 72 nM | Kd [2]: 72 nM

TTTTTTTTTTTTTTTTTTTTNTTGACAAGCTTGCGCACTG / CAGTGCGCAAGCTTGTCAAGTTTTTTTTTTTTTTTTTTTT [AP3 double-flap]
Kd ([1]; N21 of strand 1 = THF abasic analog, protein titrated from 1 M NaCl …, 1 mM DTT, 100 u): 104 nM
